Data published in patent publication US20240197902A1 (ACCELERON PHARMA, published 2024).
Substitutions are numbered along the chain they refer to. In names and notes the source's numbering stands. Each block holds one binder with its values, some of them ahead of it.

Experiments:
activin A [1] = target: T1, activin A (UniProt P08476 311-426); assay: SPR (Biacore), Fc fusion captured by anti-Fc antibody
T1 sequence (looked up): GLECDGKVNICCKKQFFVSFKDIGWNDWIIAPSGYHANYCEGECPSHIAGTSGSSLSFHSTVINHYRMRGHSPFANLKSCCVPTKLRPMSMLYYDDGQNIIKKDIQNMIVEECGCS

BMP9 [2] = target: T2, BMP9 (UniProt Q9UK05 320-429); assay: as above
T2 construct: also called GDF2
T2 sequence (looked up): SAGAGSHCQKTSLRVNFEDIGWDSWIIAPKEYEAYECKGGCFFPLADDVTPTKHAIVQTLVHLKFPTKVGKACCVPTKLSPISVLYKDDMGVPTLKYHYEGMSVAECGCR

BMP10 [3] = target: T3, BMP10 (UniProt O95393 317-424); assay: as above
T3 sequence (looked up): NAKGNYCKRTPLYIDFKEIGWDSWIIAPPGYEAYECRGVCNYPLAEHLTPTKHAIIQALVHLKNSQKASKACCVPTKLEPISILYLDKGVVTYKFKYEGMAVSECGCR

activin B [4] = target: T4, activin B (UniProt P09529 293-407); assay: as above
T4 sequence (looked up): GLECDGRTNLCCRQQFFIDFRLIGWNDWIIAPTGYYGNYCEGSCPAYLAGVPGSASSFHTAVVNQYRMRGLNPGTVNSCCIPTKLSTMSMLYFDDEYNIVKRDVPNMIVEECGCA

activin C = target: T5, activin C (UniProt P55103 237-352); assay: as above
T5 sequence (looked up): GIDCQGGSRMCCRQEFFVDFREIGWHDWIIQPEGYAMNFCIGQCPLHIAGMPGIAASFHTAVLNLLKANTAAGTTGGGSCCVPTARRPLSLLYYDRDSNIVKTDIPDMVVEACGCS

activin AC = target: T6, activin AC (UniProt P08476 311-426; P55103 237-352); assay: as above
T6 construct: Heterodimer of beta A and beta C subunits
T6 sequence (looked up) 1: T1 sequence (looked up)
T6 sequence (looked up) 2: T5 sequence (looked up)

GDF3 [5] = target: T7, GDF3 (UniProt Q9NR23 251-364); assay: as above
T7 sequence (looked up): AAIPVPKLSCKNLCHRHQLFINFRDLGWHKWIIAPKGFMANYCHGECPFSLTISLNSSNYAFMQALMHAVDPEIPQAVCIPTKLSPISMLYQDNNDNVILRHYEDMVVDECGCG

GDF8 [6] = target: T8, GDF8 (UniProt O14793 267-375); assay: as above
T8 construct: also called myostatin
T8 sequence (looked up): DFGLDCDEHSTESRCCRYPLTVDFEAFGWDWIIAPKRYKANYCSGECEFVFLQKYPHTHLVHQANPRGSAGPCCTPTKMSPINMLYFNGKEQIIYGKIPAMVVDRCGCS

GDF11 [7] = target: T9, GDF11 (UniProt O95390 299-407); assay: as above
T9 construct: also called BMP11
T9 sequence (looked up): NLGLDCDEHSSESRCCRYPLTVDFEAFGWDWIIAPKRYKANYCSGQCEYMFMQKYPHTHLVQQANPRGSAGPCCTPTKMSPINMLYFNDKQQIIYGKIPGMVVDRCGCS

BMP5 = target: T10, BMP5 (UniProt P22003 317-454, limits assumed); assay: as above
T10 sequence (looked up): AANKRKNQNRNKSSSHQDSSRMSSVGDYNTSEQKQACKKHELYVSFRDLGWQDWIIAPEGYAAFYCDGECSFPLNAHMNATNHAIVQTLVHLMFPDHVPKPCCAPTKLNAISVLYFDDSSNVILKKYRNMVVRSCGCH

BMP6 [8] = target: T11, BMP6 (UniProt P22004 375-513, limits assumed); assay: as above
T11 sequence (looked up): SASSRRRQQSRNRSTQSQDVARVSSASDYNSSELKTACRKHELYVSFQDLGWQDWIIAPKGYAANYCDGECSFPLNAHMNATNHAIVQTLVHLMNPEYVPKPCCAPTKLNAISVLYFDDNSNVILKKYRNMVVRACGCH

activin A [9] = target: T1, activin A; assay: SPR (Biacore), Fc fusion captured by anti-Fc antibody, 37 C
BMP10 [10] = target: T3, BMP10; assay: as above
activin A [11] = target: T1, activin A; assay: as above; remark: listed apart in the source
BMP9 [12] = target: T2, BMP9; assay: as above
BMP10 [13] = target: T3, BMP10; assay: as above; remark: listed apart in the source
activin B [14] = target: T4, activin B; assay: as above
GDF3 [15] = target: T7, GDF3; assay: as above
GDF8 [16] = target: T8, GDF8; assay: as above
GDF11 [17] = target: T9, GDF11; assay: as above
BMP6 [18] = target: T11, BMP6; assay: as above
GDF11 [19] = target: T9, GDF11; assay: not described

Kd (activin A [1]): 0.043 nM
koff (activin A [1]): 0.0019 s⁻¹
kon (activin A [1]): 4.4e+07 M⁻¹ s⁻¹
Kd (BMP9 [2]): > 1.4 nM
Kd (BMP10 [3]): 0.19 nM
koff (BMP10 [3]): 0.0028 s⁻¹
kon (BMP10 [3]): 1.5e+07 M⁻¹ s⁻¹
Kd (activin B [4]): 0.017 nM
koff (activin B [4]): 0.0002 s⁻¹
kon (activin B [4]): 1.2e+07 M⁻¹ s⁻¹
Kd (activin C): 6.9 nM
koff (activin C): 0.0024 s⁻¹
kon (activin C): 350000 M⁻¹ s⁻¹
Kd (activin AC): 0.22 nM
koff (activin AC): 0.00057 s⁻¹
kon (activin AC): 2.6e+06 M⁻¹ s⁻¹
Kd (GDF3 [5]): 4.5 nM
koff (GDF3 [5]): 0.01 s⁻¹
kon (GDF3 [5]): 2.3e+06 M⁻¹ s⁻¹
Kd (GDF8 [6]): 0.27 nM
koff (GDF8 [6]): 0.001 s⁻¹
kon (GDF8 [6]): 3.7e+06 M⁻¹ s⁻¹
Kd (GDF11 [7]): 0.008 nM
koff (GDF11 [7]): 0.00075 s⁻¹
kon (GDF11 [7]): 9.5e+07 M⁻¹ s⁻¹
Kd (BMP5): 57 nM
koff (BMP5): 0.0085 s⁻¹
kon (BMP5): 150000 M⁻¹ s⁻¹
Kd (BMP6 [8]): 5.3 nM
koff (BMP6 [8]): 0.0063 s⁻¹
kon (BMP6 [8]): 1.2e+06 M⁻¹ s⁻¹
B1: ActRIIB-Fc:ALK7-Fc heterodimer (Fc fusion)
chain 1: GRGEAETRECIYYNANWELERTNQSGLERCEGEQDKRLHCYASWRNSSGTIELVKKGCWLDDFNCYDRQECVATEENPQVYFCCCEGNFCNERFTHLPEAGGPEVTYEPPPTAPT
chain 2: ELSPGLKCVCLLCDSSNFTCQTEGACWASVMLTNGKEQVIKSCVSLPELNAQVFCHSSNNVTKTECCFTDFCNNITLHLPTASPNAPKLGPME

fold faster off-rate than ActRIIB-Fc homodimer (activin A [9]): ~10 fold
fold faster off-rate than ActRIIB-Fc homodimer (BMP10 [10]): ~10 fold
Kd (activin A [11]): 0.17 nM
koff (activin A [11]): 0.0015 s⁻¹
kon (activin A [11]): 8.8e+06 M⁻¹ s⁻¹
Kd (BMP9 [12]): > 2.8 nM
Kd (BMP10 [13]): 0.042 nM
koff (BMP10 [13]): 0.002 s⁻¹
kon (BMP10 [13]): 4.8e+07 M⁻¹ s⁻¹
Kd (activin B [14]): 0.025 nM
koff (activin B [14]): 0.00021 s⁻¹
kon (activin B [14]): 8.3e+06 M⁻¹ s⁻¹
Kd (GDF3 [15]): 10 nM
koff (GDF3 [15]): 0.0059 s⁻¹
kon (GDF3 [15]): 580000 M⁻¹ s⁻¹
Kd (GDF8 [16]): 0.15 nM
koff (GDF8 [16]): 0.0005 s⁻¹
kon (GDF8 [16]): 3.4e+06 M⁻¹ s⁻¹
Kd (GDF11 [17]): 0.009 nM
koff (GDF11 [17]): 0.00036 s⁻¹
kon (GDF11 [17]): 4e+07 M⁻¹ s⁻¹
Kd (BMP6 [18]): 0.056 nM
koff (BMP6 [18]): 0.018 s⁻¹
kon (BMP6 [18]): 3.3e+08 M⁻¹ s⁻¹
B2: ActRIIB-Fc:ActRIIB(L79E)-Fc heterodimer (Fc fusion)
chain 1: B1 chain 1
chain 2: B1 chain 1 with L60E

binding result (GDF11 [19]): binds
B3: ActRIIB-Fc with C-terminal tail (A64 background) (Fc fusion)
chain: SGRGEAETRECIYYNANWELERTNQSGLERCEGEQDKRLHCYASWANSSGTIELVKKGCWLDDFNCYDRQECVATEENPQVYFCCCEGNFCNERFTHLPEAGGPEVTYEPPPTAPTGGGTHTCPPCPAPELLGGPSVFLFPPKPKDTLMISRTPEVTCVVVDVSHEDPEVKFNWYVDGVEVHNAKTKPREEQYNSTYRVVSVLTVLHQDWLNGKEYKCKVSNKALPVPIEKTISKAKGQPREPQVYTLPPSREEMTKNQVSLTCLVKGFYPSDIAVEWESNGQPENNYKTTPPVLDSDGSFFLYSKLTVDKSRWQQGNVFSCSVMHEALHNHYTQKSLSLSPGK
notes: Alanine at position 64; also called preferred version of ActRIIB-Fc
